System: Escherichia coli TOP10
Assay: shrunken log2 fold change of peptide-encoding DNA abundance (4.5 h post-induction vs induction); higher = less antimicrobial activity (less host growth inhibition)
Settings: time post-induction: 4.5 h; library: site-saturation at positions 5, 18, 19, 20
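Further: peptides expressed intracellularly from a pBAD plasmid library in pooled LB shake-flask culture, induced with 0.3% L-arabinose, DNA abundance read by NGS, three biological replicates, DESeq2 with apeglm shrinkage.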

| Sequence | shrunken log2 fold change |
| --- | --- |
| RRIRIRPPRLPRPRPRPHTYPRP | -0.715 |
| RRIRYRPPRLPRPRPRPCYKPRP | -0.0156 |
| RRIRFRPPRLPRPRPRPKYHPRP | -0.428 |
| RRIRCRPPRLPRPRPRPHTDPRP | -0.246 |
| RRIRNRPPRLPRPRPRPKAQPRP | 0.0241 |
| RRIRPRPPRLPRPRPRPGPFPRP | 0.574 |
| RRIRTRPPRLPRPRPRPDMDPRP | 0.00854 |
| RRIRPRPPRLPRPRPRPAMWPRP | 0.251 |
| RRIRWRPPRLPRPRPRPAKKPRP | 0.0808 |
| RRIRRRPPRLPRPRPRPLFHPRP | 0.0745 |
| RRIRGRPPRLPRPRPRPKDYPRP | -0.00224 |
| RRIRCRPPRLPRPRPRPAMIPRP | 0.111 |
| RRIRWRPPRLPRPRPRPISLPRP | -0.161 |
| RRIRRRPPRLPRPRPRPCKCPRP | -0.01 |
| RRIRIRPPRLPRPRPRPYQSPRP | -0.0409 |
| RRIRFRPPRLPRPRPRPWQKPRP | -0.097 |
| RRIRYRPPRLPRPRPRPNSYPRP | -2.3 |
| RRIRVRPPRLPRPRPRPILPPRP | -0.331 |
| RRIRPRPPRLPRPRPRPEAFPRP | -0.0543 |
| RRIRHRPPRLPRPRPRPQITPRP | -0.884 |
| RRIRWRPPRLPRPRPRPCYHPRP | -0.123 |
| RRIRLRPPRLPRPRPRPPEYPRP | -0.26 |
| RRIRKRPPRLPRPRPRPGCWPRP | 0.466 |
| RRIRIRPPRLPRPRPRPIHPPRP | -0.208 |
| RRIRNRPPRLPRPRPRPTIDPRP | -0.492 |

| Sequence | shrunken log2 fold change |
| --- | --- |
| RRIRVRPPRLPRPRPRPYLCPRP | 0.0235 |
| RRIRDRPPRLPRPRPRPATPPRP | 0.276 |
| RRIRNRPPRLPRPRPRPQQQPRP | 0.103 |
| RRIRWRPPRLPRPRPRPEVQPRP | 0.69 |
| RRIRHRPPRLPRPRPRPEKVPRP | -0.017 |
| RRIRVRPPRLPRPRPRPDPTPRP | 0.106 |
| RRIRPRPPRLPRPRPRPQVGPRP | 0.0207 |
| RRIRWRPPRLPRPRPRPMAPPRP | 0.0741 |
| RRIRSRPPRLPRPRPRPLGLPRP | 0.204 |
| RRIRDRPPRLPRPRPRPLARPRP | 0.479 |
| RRIRNRPPRLPRPRPRPSVMPRP | -0.281 |
| RRIRDRPPRLPRPRPRPHFGPRP | 0.0884 |
| RRIRVRPPRLPRPRPRPNAGPRP | 0.0323 |
| RRIRPRPPRLPRPRPRPQFDPRP | -0.0475 |
| RRIRPRPPRLPRPRPRPLCPPRP | -0.128 |
| RRIRNRPPRLPRPRPRPRAHPRP | -0.0951 |
| RRIRFRPPRLPRPRPRPATHPRP | 0.167 |
| RRIRHRPPRLPRPRPRPQPGPRP | -0.0184 |
| RRIRWRPPRLPRPRPRPPERPRP | 0.816 |
| RRIRPRPPRLPRPRPRPFYQPRP | -0.142 |
| RRIRIRPPRLPRPRPRPWQLPRP | -0.0817 |
| RRIRARPPRLPRPRPRPGRFPRP | 1.11 |
| RRIRLRPPRLPRPRPRPVWKPRP | -0.0133 |
| RRIRKRPPRLPRPRPRPHIYPRP | -0.175 |
| RRIRLRPPRLPRPRPRPSPVPRP | -0.186 |

| Sequence | shrunken log2 fold change |
| --- | --- |
| RRIRRRPPRLPRPRPRPCRNPRP | 0.0376 |
| RRIRPRPPRLPRPRPRPAWSPRP | 0.152 |
| RRIRFRPPRLPRPRPRPAACPRP | 0.0906 |
| RRIRCRPPRLPRPRPRPIPMPRP | -0.108 |
| RRIRCRPPRLPRPRPRPTYKPRP | -0.267 |
| RRIRGRPPRLPRPRPRPAQWPRP | 0.933 |
| RRIRTRPPRLPRPRPRPILAPRP | 0.00499 |
| RRIRCRPPRLPRPRPRPSQKPRP | -0.169 |
| RRIRDRPPRLPRPRPRPLNPPRP | -0.478 |
| RRIRLRPPRLPRPRPRPHSPPRP | -0.252 |
| RRIRYRPPRLPRPRPRPFLGPRP | -0.0439 |
| RRIRPRPPRLPRPRPRPGYWPRP | 0.278 |
| RRIRCRPPRLPRPRPRPSDLPRP | -0.0943 |
| RRIRQRPPRLPRPRPRPEREPRP | 0.0841 |
| RRIRSRPPRLPRPRPRPWMHPRP | -0.0312 |
| RRIRTRPPRLPRPRPRPYMFPRP | -0.776 |
| RRIRPRPPRLPRPRPRPGVQPRP | 0.336 |
| RRIRPRPPRLPRPRPRPHSFPRP | -0.0599 |
| RRIRARPPRLPRPRPRPRGGPRP | 0.737 |
| RRIRMRPPRLPRPRPRPEIDPRP | 3.19 |
| RRIRYRPPRLPRPRPRPKILPRP | -0.247 |
| RRIRDRPPRLPRPRPRPAEKPRP | 0.0328 |
| RRIRCRPPRLPRPRPRPMFTPRP | -0.497 |
| RRIRLRPPRLPRPRPRPYIIPRP | -0.217 |
| RRIRRRPPRLPRPRPRPSYSPRP | -0.319 |

| Sequence | shrunken log2 fold change |
| --- | --- |
| RRIRYRPPRLPRPRPRPGTVPRP | 0.0427 |
| RRIRMRPPRLPRPRPRPVYNPRP | -0.17 |
| RRIRHRPPRLPRPRPRPIINPRP | -0.324 |
| RRIRHRPPRLPRPRPRPDSQPRP | -0.194 |
| RRIRARPPRLPRPRPRPSCCPRP | 0.207 |
| RRIRMRPPRLPRPRPRPACYPRP | 0.223 |
| RRIRSRPPRLPRPRPRPCFHPRP | -0.749 |
| RRIRLRPPRLPRPRPRPNHAPRP | -0.0276 |
| RRIRSRPPRLPRPRPRPKRKPRP | 0.458 |
| RRIRFRPPRLPRPRPRPGFIPRP | -0.257 |
| RRIRYRPPRLPRPRPRPDAIPRP | -0.224 |
| RRIRQRPPRLPRPRPRPIHPPRP | -0.0838 |
| RRIRQRPPRLPRPRPRPRATPRP | 0.138 |
| RRIRARPPRLPRPRPRPAKVPRP | 0.167 |
| RRIRDRPPRLPRPRPRPYKMPRP | -0.17 |
| RRIRERPPRLPRPRPRPWDLPRP | -0.164 |
| RRIRDRPPRLPRPRPRPAFWPRP | -0.0581 |
| RRIRQRPPRLPRPRPRPYNNPRP | -1.04 |
| RRIRNRPPRLPRPRPRPPTTPRP | 0.19 |
| RRIRSRPPRLPRPRPRPPKQPRP | -0.215 |
| RRIRPRPPRLPRPRPRPYFKPRP | -0.796 |
| RRIRTRPPRLPRPRPRPVDRPRP | 0.141 |
| RRIRMRPPRLPRPRPRPLGPPRP | 0.716 |
| RRIRARPPRLPRPRPRPYHAPRP | -0.0253 |
| RRIRIRPPRLPRPRPRPMMRPRP | 0.116 |

| Sequence | shrunken log2 fold change |
| --- | --- |
| RRIRRRPPRLPRPRPRPQAPPRP | 0.236 |
| RRIRLRPPRLPRPRPRPPFKPRP | 0.0605 |
| RRIRARPPRLPRPRPRPIQHPRP | -0.132 |
| RRIRYRPPRLPRPRPRPHMHPRP | -0.988 |
| RRIRQRPPRLPRPRPRPRTRPRP | 0.225 |
| RRIRTRPPRLPRPRPRPIIDPRP | -0.000898 |
| RRIRARPPRLPRPRPRPHITPRP | -0.294 |
| RRIRVRPPRLPRPRPRPLHYPRP | -0.088 |
| RRIRHRPPRLPRPRPRPCSEPRP | 0.0248 |
| RRIRNRPPRLPRPRPRPYVAPRP | -0.931 |
| RRIRQRPPRLPRPRPRPSDPPRP | 0.114 |
| RRIRHRPPRLPRPRPRPPMPPRP | 0.108 |
| RRIRCRPPRLPRPRPRPDQMPRP | 0.101 |
| RRIRERPPRLPRPRPRPKLMPRP | 0.0215 |
| RRIRERPPRLPRPRPRPFIFPRP | -0.476 |
| RRIRHRPPRLPRPRPRPHPMPRP | -0.076 |
| RRIRERPPRLPRPRPRPFRSPRP | -0.0241 |
| RRIRERPPRLPRPRPRPETHPRP | 0.178 |
| RRIRVRPPRLPRPRPRPTADPRP | 0.27 |
| RRIRKRPPRLPRPRPRPTTLPRP | 0.0155 |
| RRIRWRPPRLPRPRPRPFCRPRP | 0.0689 |
| RRIRVRPPRLPRPRPRPYNLPRP | -0.414 |
| RRIRCRPPRLPRPRPRPCHRPRP | -0.371 |
| RRIRQRPPRLPRPRPRPWYLPRP | -0.176 |
| RRIRVRPPRLPRPRPRPKRVPRP | 0.0344 |
